Reference: publication PMC3012696, “Crystal Structure of UBA2^ufd-Ubc9: Insights into E1-E2 Interactions in Sumo Pathways” (PLoS ONE, 2010)

Molecular target: T1, Ubc9 (Sumo E2 conjugating enzyme), S. cerevisiae (S. cerevisiae, UniProt P50623 1-157)
T1 construct: Ubc9, S. cerevisiae; also called yeast Ubc9; source: cation exchange for crystallography; not shown: GST, N-terminal, cleaved
T1 sequence: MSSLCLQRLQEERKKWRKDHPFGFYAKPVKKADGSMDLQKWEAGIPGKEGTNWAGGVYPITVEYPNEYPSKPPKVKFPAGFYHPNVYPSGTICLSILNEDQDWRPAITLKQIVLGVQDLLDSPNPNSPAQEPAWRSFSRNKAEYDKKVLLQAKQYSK
Assay: crystal structure; 1.1:1 volume:volume mixture of Uba2^ufd at 22 mg/ml and Ubc9 at 27 mg/ml; crystals at 4°C; 20% (w/v) PEG3350, 0.1 M Bis-Tris pH 5.5, 0.2 M Li2SO4; 2.3 Å; two complexes per asymmetric unit
Settings: both partners purified

B1: Uba2 ubiquitin-fold domain (Uba2^ufd), residues 439-563, S. cerevisiae (domain or fragment, UniProt P52488 439-563, looked up)
chain: SKVCRGVIKLSSDCLNKMKLSDFVVLIREKYSYPQDISLLDASNQRLLFDYDFEDLNDRTLSEINLGNGSIILFSDEEGDTMIRKAIELFLDVDDELPCNTCSLPDVEVPLIKANNSPSKNEEEE
notes: Uba2 (Sumo E1 subunit), S. cerevisiae, C-terminal ubiquitin-fold domain, residues 439-563; Expressed from pGEX-4T1; also called yeast Uba2^ufd; not shown: GST, N-terminal, cleaved
binding result: binds
